Laboratory results from patent publication US20210214461A1.

Tests used:
[1] = molecular target: pre-existing anti-scFv903 antibodies in human serum H15 (human); test: competition ADA bridging ELISA, 100 mcg/ml competitor
[2] = molecular target: pre-existing anti-scFv903 antibodies in human serum H19 (human); test: as above
[3] = molecular target: pre-existing anti-scFv903 antibodies in human serum H79 (human); test: as above
[4] = molecular target: pre-existing anti-scFv903 antibodies in human serum H76 (human); test: as above
[5] = molecular target: pre-existing anti-scFv903 antibodies in human serum H64 (human); test: as above
[6] = molecular target: pre-existing anti-scFv903 antibodies in human serum H115 (human); test: as above
[7] = molecular target: pre-existing anti-scFv903 antibodies in human serum H54 (human); test: as above
[8] = molecular target: pre-existing anti-scFv903 antibodies in human serum H105 (human); test: as above
[9] = molecular target: pre-existing anti-scFv903 antibodies in human serum H59 (human); test: as above
[10] = molecular target: pre-existing anti-scFv903 antibodies in human serum H56 (human); test: as above
[11] = molecular target: pre-existing anti-scFv903 antibodies in human serum H125 (human); test: as above
[12] = molecular target: pre-existing anti-scFv903 antibodies in human serum H66 (human); test: as above
[13] = molecular target: pre-existing anti-scFv903 antibodies in human serum H63 (human); test: competition ADA bridging ELISA
[14] = molecular target: pre-existing anti-scFv903 antibodies in human serum H26 (human); test: competition ADA bridging ELISA
[15] = molecular target: pre-existing anti-scFv903 antibodies in human serum H20 (human); test: competition ADA bridging ELISA
[16] = molecular target: pre-existing anti-scFv903 antibodies in human serum H15 (human); test: competition ADA bridging ELISA
[17] = molecular target: pre-existing anti-scFv903 antibodies in human serum H19 (human); test: competition ADA bridging ELISA
[18] = molecular target: pre-existing anti-scFv903 antibodies in human serum H55 (human); test: competition ADA bridging ELISA
[19] = molecular target: pre-existing anti-scFv903 antibodies in human serum H29 (human); test: competition ADA bridging ELISA
[20] = molecular target: pre-existing anti-scFv903 antibodies in human serum H14 (human); test: competition ADA bridging ELISA
[21] = molecular target: pre-existing anti-scFv903 antibodies in human serum H79 (human); test: competition ADA bridging ELISA
[22] = molecular target: pre-existing anti-scFv903 antibodies in human serum H76 (human); test: competition ADA bridging ELISA
[23] = molecular target: pre-existing anti-scFv903 antibodies in human serum H53 (human); test: competition ADA bridging ELISA
[24] = molecular target: pre-existing anti-scFv903 antibodies in human serum H64 (human); test: competition ADA bridging ELISA
[25] = molecular target: pre-existing anti-scFv903 antibodies in human serum H49 (human); test: competition ADA bridging ELISA
[26] = molecular target: pre-existing anti-scFv903 antibodies in human serum H40 (human); test: competition ADA bridging ELISA
[27] = molecular target: pre-existing anti-scFv903 antibodies in human serum H115 (human); test: competition ADA bridging ELISA
[28] = molecular target: pre-existing anti-scFv903 antibodies in human serum H80 (human); test: competition ADA bridging ELISA
[29] = molecular target: pre-existing anti-scFv903 antibodies in human serum H54 (human); test: competition ADA bridging ELISA
[30] = molecular target: pre-existing anti-scFv903 antibodies in human serum H135 (human); test: competition ADA bridging ELISA
[31] = molecular target: pre-existing anti-scFv903 antibodies in human serum H105 (human); test: competition ADA bridging ELISA
[32] = molecular target: pre-existing anti-scFv903 antibodies in human serum H81 (human); test: competition ADA bridging ELISA
[33] = molecular target: pre-existing anti-scFv903 antibodies in human serum H8 (human); test: competition ADA bridging ELISA
[34] = molecular target: pre-existing anti-scFv903 antibodies in human serum H21 (human); test: competition ADA bridging ELISA
[35] = molecular target: pre-existing anti-scFv903 antibodies in human serum H60 (human); test: competition ADA bridging ELISA
[36] = molecular target: pre-existing anti-scFv903 antibodies in human serum H59 (human); test: competition ADA bridging ELISA
[37] = molecular target: pre-existing anti-scFv903 antibodies in human serum H56 (human); test: competition ADA bridging ELISA
[38] = molecular target: pre-existing anti-scFv903 antibodies in human serum H125 (human); test: competition ADA bridging ELISA
[39] = molecular target: pre-existing anti-scFv903 antibodies in human serum H3 (human); test: competition ADA bridging ELISA
[40] = molecular target: pre-existing anti-scFv903 antibodies in human serum H66 (human); test: competition ADA bridging ELISA
[41] = molecular target: pre-existing anti-scFv903 antibodies in human serum H96 (human); test: competition ADA bridging ELISA
[42] = molecular target: pre-existing anti-scFv903 antibodies in human serum H69 (human); test: competition ADA bridging ELISA
[43] = molecular target: pre-existing anti-scFv903 antibodies in human serum H46 (human); test: competition ADA bridging ELISA
[44] = molecular target: pre-existing anti-scFv903 antibodies in human serum H116 (human); test: competition ADA bridging ELISA
[45] = molecular target: pre-existing anti-scFv903 antibodies in human serum H50 (human); test: competition ADA bridging ELISA
[46] = molecular target: pre-existing anti-scFv903 antibodies in human serum H86 (human); test: competition ADA bridging ELISA

B1: scFv105 (scFv)
scFv: DIVMTQSPSSLSASVGDRVTLTCTASQSVSNDVVWYQQRPGKAPKLLIYSAFNRYTGVPSRFSGRGYGTDFTLTISSLQPEDVAVYYCQQDYNSPRTFGQGTKLEVKRGGGGSGGGGSGGGGSSGGGSQVQLVQSGAEVKKPGASVKVSCTASGYTFTHYGMNWVRQAPGKGLEWMGWINTYTGEPTYADKFKDRFTFSLETSASTVYMELTSLTSDDTAVYYCARERGDAMDYWGQGTLVTVSS
[1]
  % reduction in OD: -69.5%
[2]
  % reduction in OD: -73.5%
[3]
  % reduction in OD: -40.5%
[4]
  % reduction in OD: -65.7%
[5]
  % reduction in OD: -55.5%
[6]
  % reduction in OD: -60.4%
[7]
  % reduction in OD: -61.3%
[8]
  % reduction in OD: 2.4%
[9]
  % reduction in OD: -93.7%
[10]
  % reduction in OD: -4.8%
[11]
  % reduction in OD: -55.5%
[12]
  % reduction in OD: -2.6%
[13]
  signal change in competition ELISA (% reduction in OD): -80%
[14]
  signal change in competition ELISA (% reduction in OD): -80%
[15]
  signal change in competition ELISA (% reduction in OD): -19%
[16]
  signal change in competition ELISA (% reduction in OD): -69%
[17]
  signal change in competition ELISA (% reduction in OD): -73%
[18]
  signal change in competition ELISA (% reduction in OD): -72%
[19]
  signal change in competition ELISA (% reduction in OD): -51%
[20]
  signal change in competition ELISA (% reduction in OD): -4%
[21]
  signal change in competition ELISA (% reduction in OD): -41%
[22]
  signal change in competition ELISA (% reduction in OD): -18%
[23]
  signal change in competition ELISA (% reduction in OD): -18%
[24]
  signal change in competition ELISA (% reduction in OD): -55%
[25]
  signal change in competition ELISA (% reduction in OD): -26%
[26]
  signal change in competition ELISA (% reduction in OD): 4%
[27]
  signal change in competition ELISA (% reduction in OD): -60%
[28]
  signal change in competition ELISA (% reduction in OD): -51%
[29]
  signal change in competition ELISA (% reduction in OD): -61%
[30]
  signal change in competition ELISA (% reduction in OD): -23%
[31]
  signal change in competition ELISA (% reduction in OD): 2%
[32]
  signal change in competition ELISA (% reduction in OD): -18%
[33]
  signal change in competition ELISA (% reduction in OD): -23%
[34]
  signal change in competition ELISA (% reduction in OD): -3%
[35]
  signal change in competition ELISA (% reduction in OD): -11%
[36]
  signal change in competition ELISA (% reduction in OD): -94%
[37]
  signal change in competition ELISA (% reduction in OD): -5%
[38]
  signal change in competition ELISA (% reduction in OD): -55%
[39]
  signal change in competition ELISA (% reduction in OD): -59%
[40]
  signal change in competition ELISA (% reduction in OD): -3%
[41]
  signal change in competition ELISA (% reduction in OD): -29%
[42]
  signal change in competition ELISA (% reduction in OD): -88%
[43]
  signal change in competition ELISA (% reduction in OD): -67%
[44]
  signal change in competition ELISA (% reduction in OD): -43%
[45]
  signal change in competition ELISA (% reduction in OD): -31%

B2: scFv 791 (scFv)
scFv: MEIVMTQSPSTLSASLGDRVIITCQSSQSVYGNIWMAWYQQKSGKAPKLLIYQASKLASGVPSRFSGSGSGAEFSLTISSLQPDDFATYYCQGNFNTGDRYAFGQGTKLTVLGGGGGSGGGGSGGGGSGGGGSEVQLVESGGGLVQPGGSLRLSCTASGFTISRSYWICWVRQAPGKGLEWVACIYGDNDITPLYANWAKGRFPVSTDTSKNTVYLQMNSLRAEDTAVYYCARLGYADYAYDLWGQGTLVTVSS
[1]
  % reduction in OD: -90%
[2]
  % reduction in OD: -84.3%
[3]
  % reduction in OD: -96.8%
[4]
  % reduction in OD: -48.6%
[5]
  % reduction in OD: -95.5%
[6]
  % reduction in OD: -94.8%
[7]
  % reduction in OD: -91.7%
[8]
  % reduction in OD: -96.9%
[9]
  % reduction in OD: -96.4%
[10]
  % reduction in OD: -15.1%
[11]
  % reduction in OD: -97.4%
[12]
  % reduction in OD: -96.4%
[13]
  signal change in competition ELISA (% reduction in OD): -20%
[14]
  signal change in competition ELISA (% reduction in OD): -97%
[15]
  signal change in competition ELISA (% reduction in OD): -96%
[16]
  signal change in competition ELISA (% reduction in OD): -90%
[17]
  signal change in competition ELISA (% reduction in OD): -84%
[18]
  signal change in competition ELISA (% reduction in OD): -96%
[19]
  signal change in competition ELISA (% reduction in OD): -79%
[20]
  signal change in competition ELISA (% reduction in OD): -96%
[21]
  signal change in competition ELISA (% reduction in OD): -97%
[22]
  signal change in competition ELISA (% reduction in OD): -96%
[23]
  signal change in competition ELISA (% reduction in OD): -35%
[46]
  signal change in competition ELISA (% reduction in OD): -87%
[24]
  signal change in competition ELISA (% reduction in OD): -96%
[25]
  signal change in competition ELISA (% reduction in OD): -81%
[26]
  signal change in competition ELISA (% reduction in OD): -95%
[27]
  signal change in competition ELISA (% reduction in OD): -95%
[28]
  signal change in competition ELISA (% reduction in OD): -85%
[29]
  signal change in competition ELISA (% reduction in OD): -92%
[30]
  signal change in competition ELISA (% reduction in OD): -95%
[31]
  signal change in competition ELISA (% reduction in OD): -97%
[32]
  signal change in competition ELISA (% reduction in OD): -94%
[33]
  signal change in competition ELISA (% reduction in OD): -91%
[34]
  signal change in competition ELISA (% reduction in OD): -85%
[35]
  signal change in competition ELISA (% reduction in OD): -95%
[36]
  signal change in competition ELISA (% reduction in OD): -96%
[37]
  signal change in competition ELISA (% reduction in OD): -15%
[38]
  signal change in competition ELISA (% reduction in OD): -97%
[39]
  signal change in competition ELISA (% reduction in OD): -85%
[40]
  signal change in competition ELISA (% reduction in OD): -96%
[41]
  signal change in competition ELISA (% reduction in OD): -79%
[42]
  signal change in competition ELISA (% reduction in OD): -75%
[43]
  signal change in competition ELISA (% reduction in OD): -77%
[44]
  signal change in competition ELISA (% reduction in OD): -97%
[45]
  signal change in competition ELISA (% reduction in OD): -89%
